Consider one protein from article PMC11856660 (PLOS Pathogens, 2025).

The series concerns the molecule itself. Nature of the series: […] (25 mM HEPES pH 8, 300 mM NaCl, 10% glycerol, 1 mM TCEP); […]; 20 °C; […].

B1: HCoV-229E nsp15 protein, wild type (recombinant, hexameric) (enzyme)
chain: GLENIAFNVVNKGSFVGADGELPVAISGDKVFVRDGNTDNLVFVNKTSLPTNIAFELFAKRKVGLTPPLSILKNLGVVATYKFVLWDYEAERPLTSFTKSVCGYTDFAEDVCTCYDNSIQGSYERFTLSTNAVLFSATAVKTGGKSLPAIKLNFGMLNGNAIATVKSEDGNIKNINWFVYVRKDGKPVDHYDGFYTQGRNLQDFLPRSTMEEDFLNMDIGVFIQKYGLEDFNFEHVVYGDVSKTTLGGLHLLISQVRLSKMGILKAEEFVAASDITLKCCTVTYLNDPSSKTVCTYMDLLLDDFVSVLKSLDLTVVSKVHEVIIDNKPWRWMLWCKDNAVATFYPQLQ
notes: source: T7 Express E. coli, purified (Ni-NTA, SEC)
As for B1, the “stoichiometry N” value turned out to be 6.

In general, stoichiometry N refers to a count of units in the complex or per binding partner.
